Values of other authors as cited in US20250099434A1, “METHODS OF TREATING AMYLOID RELATED BRAIN DISORDERS USING NOVEL COMPOUNDS AND ANTIBODIES” (T3D Therapeutics, Inc., priority 2022, published 2025).

Key:
[1] = human, in vivo; cited from earlier work
[2] = EXPEDITION-3; cited from earlier work
Aβ fibrils = settings: cited from earlier work
brain amyloid = settings: cited from earlier work

Molecule: Crenezumab: humanized antibody with an IgG4 backbone recognizing multiple forms of aggregated Aβ
- ARIA incidence [1]: low

Molecule: solanezumab: humanized monoclonal IgG1 antibody directed against the mid-domain of the Aβ peptide
- incidence of vasogenic edema (ARIA-E), patients treated [2]: approximately 0.1%

B1: Gantenerumab: fully human IgG1 antibody binding a conformational epitope on Aβ fibrils (antibody, chains of the INN, looked up, V domains shown)
VH: QVELVESGGGLVQPGGSLRLSCAASGFTFSSYAMSWVRQAPGKGLEWVSAINASGTRTYYADSVKGRFTISRDNSKNTLYLQMNSLRAEDTAVYYCARGKGNTHKPYGYVRYFDVWGQGTLVTVSS
VL: DIVLTQSPATLSLSPGERATLSCRASQSVSSSYLAWYQQKPGQAPRLLIYGASSRATGVPARFSGSGSGTDFTLTISSLEPEDFATYYCLQIYNMPITFGQGTKVEIK
- affinity to a conformational epitope on Aβ fibrils (Aβ fibrils): sub-nanomolar
- lowering of brain amyloid, average, florbetapir PET (brain amyloid; dosed as high as 1200 mg subcutaneously): 59 centiloid
- participants who developed ARIA-E (brain amyloid; extension studies): one-third
- patients with ARIA (brain amyloid; highest dose): one third
